# Experimental data reported in patent US20120316071A1 (published 2012).
# Key:
# [1] = target: T1, rHuman Notch-1/Fc Chimera, CF (R&D Systems Cat#3647-TK) (human, UniProt P46531 19-526); assay: ECL Multispot (MSD), 10 nM Fab; blank of this row 204
# T1 construct: Bought reagent; Fc part of the bought chimera not given
# [2] = target: T2, rHuman CD44/Fc Chimera, CF (R&D Systems Cat#3660-CD) (human, UniProt P16070 21-220); assay: as above
# T2 construct: Bought reagent; Fc part of the bought chimera not given
# [3] = target: T3, rHuman IGF-1 sR, (IGF-1 sR), CF (R&D Systems Cat#391-GR) (human, UniProt P08069 31-932); assay: as above
# T3 construct: Bought soluble receptor; also called insulin-like growth factor-1 soluble receptor
# [4] = target: T4, rHuman P-Cadherin/Fc Chimera, CF (R&D Systems Cat#861-PC) (human, UniProt P22223 108-654); assay: as above
# T4 construct: Bought reagent; Fc part of the bought chimera not given
# [5] = target: T5, rHuman Erythropoietin R/Fc Chimera, CF (R&D Systems Cat#963-ER) (human, UniProt P19235 25-250); assay: as above
# T5 construct: Bought reagent; also called EPO R; EPO R/Fc; Fc part of the bought chimera not given
# T5 sequence (looked up): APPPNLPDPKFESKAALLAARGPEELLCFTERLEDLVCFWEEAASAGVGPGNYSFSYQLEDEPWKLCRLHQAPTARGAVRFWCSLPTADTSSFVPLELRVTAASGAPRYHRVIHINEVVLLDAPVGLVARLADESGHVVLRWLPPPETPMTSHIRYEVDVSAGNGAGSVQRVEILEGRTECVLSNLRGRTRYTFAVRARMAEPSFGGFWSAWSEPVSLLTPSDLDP
# [6] = target: T6, rHuman ErbB2/Fc Chimera, CF (R&D Systems Cat#1129-ER) (human, UniProt P04626 23-652); assay: as above
# T6 construct: Bought reagent; also called human epidermal growth factor 2 receptor; Fc part of the bought chimera not given
# [7] = target: T7, rHuman EGF R/Fc Chimera, CF (R&D Systems Cat#344-ER) (human, UniProt P00533 25-645); assay: as above
# T7 construct: Bought reagent; also called epidermal growth factor receptor; Fc part of the bought chimera not given
# [8] = target: T8, rHuman HGF R/c-MET/Fc Chimera, CF (R&D Systems Cat#358-MT/CF) (human, UniProt P08581 25-932); assay: as above
# T8 construct: Bought reagent; also called HGF R/Fc; hepatocyte growth factor receptor; Fc part of the bought chimera not given
# [9] = target: T1, rHuman Notch-1/Fc Chimera, CF (R&D …); assay: ECL Multispot (MSD), 10 nM Fab; blank of this row 363
# [10] = target: T2, rHuman CD44/Fc Chimera, CF (R&D Systems …); assay: as above
# [11] = target: T3, rHuman IGF-1 sR, (IGF-1 sR), CF (R&D …); assay: as above
# [12] = target: T4, rHuman P-Cadherin/Fc Chimera, CF (R&D …); assay: as above
# [13] = target: T5, rHuman Erythropoietin R/Fc Chimera, CF …; assay: as above
# [14] = target: T6, rHuman ErbB2/Fc Chimera, CF (R&D …); assay: as above
# [15] = target: T7, rHuman EGF R/Fc Chimera, CF (R&D …); assay: as above
# [16] = target: T8, rHuman HGF R/c-MET/Fc Chimera, CF (R&D …); assay: as above
# [17] = target: T1, rHuman Notch-1/Fc Chimera, CF (R&D …); assay: ECL Multispot (MSD), 10 nM Fab; blank of this row 203
# [18] = target: T2, rHuman CD44/Fc Chimera, CF (R&D Systems …); assay: as above
# [19] = target: T3, rHuman IGF-1 sR, (IGF-1 sR), CF (R&D …); assay: as above
# [20] = target: T4, rHuman P-Cadherin/Fc Chimera, CF (R&D …); assay: as above
# [21] = target: T5, rHuman Erythropoietin R/Fc Chimera, CF …; assay: as above
# [22] = target: T6, rHuman ErbB2/Fc Chimera, CF (R&D …); assay: as above
# [23] = target: T7, rHuman EGF R/Fc Chimera, CF (R&D …); assay: as above
# [24] = target: T8, rHuman HGF R/c-MET/Fc Chimera, CF (R&D …); assay: as above
# T8 sequence (P08581 25-932, change not shown): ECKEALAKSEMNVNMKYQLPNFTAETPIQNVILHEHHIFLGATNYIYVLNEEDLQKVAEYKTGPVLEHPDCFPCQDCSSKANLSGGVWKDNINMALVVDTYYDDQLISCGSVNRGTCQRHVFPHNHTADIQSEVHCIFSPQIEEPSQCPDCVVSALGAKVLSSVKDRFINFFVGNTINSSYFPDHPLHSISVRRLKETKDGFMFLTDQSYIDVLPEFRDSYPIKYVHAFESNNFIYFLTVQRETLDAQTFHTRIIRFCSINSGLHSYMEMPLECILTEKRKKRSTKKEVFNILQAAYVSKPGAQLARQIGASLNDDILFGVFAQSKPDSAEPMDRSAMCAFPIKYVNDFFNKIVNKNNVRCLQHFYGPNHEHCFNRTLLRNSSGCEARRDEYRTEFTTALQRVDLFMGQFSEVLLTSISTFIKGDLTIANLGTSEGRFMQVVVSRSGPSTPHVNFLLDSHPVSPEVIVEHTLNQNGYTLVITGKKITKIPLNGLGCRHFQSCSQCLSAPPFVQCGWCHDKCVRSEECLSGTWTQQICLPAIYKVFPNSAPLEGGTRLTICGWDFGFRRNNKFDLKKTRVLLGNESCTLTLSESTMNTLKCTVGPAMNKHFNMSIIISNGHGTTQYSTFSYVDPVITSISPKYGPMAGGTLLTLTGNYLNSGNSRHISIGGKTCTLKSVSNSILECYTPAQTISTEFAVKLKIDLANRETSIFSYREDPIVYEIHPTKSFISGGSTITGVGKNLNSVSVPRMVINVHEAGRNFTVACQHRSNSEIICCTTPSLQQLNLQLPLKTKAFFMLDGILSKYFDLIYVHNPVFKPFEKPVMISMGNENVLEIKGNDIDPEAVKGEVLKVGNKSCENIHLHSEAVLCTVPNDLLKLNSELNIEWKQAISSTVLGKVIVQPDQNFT
binder,measurement,setting,value
"Fab VH1-46_IGHD6-6*01_IGHJ1*01 S102A/S103P/S104F (APF) & L6_IGKJ1*01 (Fab, V domains shown, Tested as Fab made in E. coli; also called H:APF & L:wt; APF triple mutant) VH: QVQLVQSGAEVKKPGASVKVSCKASGYTFTSYYMHWVRQAPGQGLEWMGIINPSGGSTSYAQKFQGRVTMTRDTSTSTVYMELSSLRSEDTAVYYCAREEYAPFSAEYFQHWGQGTLVTVSS VL: not shown",ECL signal,[1],283
same,ECL signal,[2],340
same,ECL signal,[3],213
same,ECL signal,[4],118
same,ECL signal,[5],343
same,ECL signal,[6],302
same,ECL signal,[7],394
same,ECL signal,[8],200
same,ECL signal,[9],376
same,ECL signal,[10],345
same,ECL signal,[11],361
same,ECL signal,[12],305
same,ECL signal,[13],494
same,ECL signal,[14],525
same,ECL signal,[15],467
same,ECL signal,[16],422
"Fab VH1-46_IGHD6-6*01_IGHJ1*01 S102A/S103P/S104F H111S & L6_IGKJ1*01 (Fab, V domains shown, Fab format as for m1; also called APF H111S) VH: QVQLVQSGAEVKKPGASVKVSCKASGYTFTSYYMHWVRQAPGQGLEWMGIINPSGGSTSYAQKFQGRVTMTRDTSTSTVYMELSSLRSEDTAVYYCAREEYAPFSAEYFQSWGQGTLVTVSS VL: not shown",ECL signal,[17],272
same,ECL signal,[18],244
same,ECL signal,[19],136
same,ECL signal,[20],178
same,ECL signal,[21],277
same,ECL signal,[22],314
same,ECL signal,[23],286
same,ECL signal,[24],235
